{"source": "patent US6979530", "proteins": {"B1": {"name": "purified caspase-3 (BD PharMingen) (protein)", "chain": "SGISLDNSYKMDYPEMGLCIIINNKNFHKSTGMTSRSGTDVDAANLRETFRNLKYEVRNKNDLTREEIVELMRDVSKEDHSKRSSFVCVLLSHGEEGIIFGTNGPVDLKKITNFFRGDRCRSLTGKPKLFIIQACRGTELDCGIETDSGVDDDMACHKIPVEADFLYAYSTAPGYYSWRNSKDGSWFIQSLCAMLKQYADKLEFMHILTRVNRKVATEFESFSFDATFHAKKQIPCIVSMLTKELYFYH"}}, "biological_target": "T1, Peptide conjugate 9 (DYE^2-Gly-Asp-Glu-Val-Asp-Gly-Ile-Lys-DYE^1)", "T1 chain": "GDEVDGIK"}
{"protein": "B1", "values": [{"measurement": "fluorescence excitation and emission spectra before and after adding purified caspase-3 (in vitro cleavage)", "value": "When purified caspase-3 is added to 9, significant excitation fluorescence (FIG. 6) and significant emission fluorescence is detected (FIG. 7) from the donor dibenzorhodamine dye"}, {"measurement": "time course of donor dye fluorescence emission after mixing with caspase-3 (in vitro cleavage)", "value": "Emission from the donor dye increased rapidly during the first 5 to 10 minutes and stabilized in about an hour, indicating rapid cleavage."}]}
